Assay results taken from the supplement of paper PMC10126150.
± gives the standard deviation of the averaged measurements.

Tested on: ATP
Assay: switch fluorescence ratio, 500 uM ATP over buffer (Cy3 cluster intensity, sum of 5 cycles each) (fold (ratio)); higher = stronger signal-on switching upon ATP binding; sequences stand for … in TCGTCGGCAGCGTCAGATGTGTATAAGAGACAGTTTTTTTTTTTTTTTTTTTTTTTTT…TC
Conditions: aptamer strand: ATP DNA aptamer (quencher-CACCTGGGGGAGTATTGCGGAGGAAGG + anchor), 100 nM annealed; ATP concentration: 500 uM
Summary of the method: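 Switching-strand clusters labelled with Cy3 on a modified Illumina MiSeq flow-cell were annealed to 100 nM quencher-labelled ATP aptamer, imaged in selection buffer, and re-imaged after 15 min with 500 uM ATP at 22 °C. This was done over five cycles with NaOH stripping and re-annealing in between. The fluorescence ratio is summed target-cycle over summed buffer-cycle Cy3 intensity per cluster, averaged per switch-domain sequence, excluding clusters outside 100-1000 RFU.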
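Further: ATP exposure 15 min at 22 °C before imaging.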

| Sequence | switch fluorescence ratio |
| --- | --- |
| CGTATTCGCT | 0.993 ± 0.021 |
| AGAGCGTTCG | 0.998 ± 0.042 |
| AGGCTGGCTA | 1 ± 0.019 |
| AGAATGTATG | 0.994 ± 0.021 |
| GGGGGCATGG | 1 ± 0.02 |
| GTTTGTTGGC | 0.967 ± 0.056 |
| CTTGTTTGAC | 0.988 ± 0.044 |
| GGCGTTTGGG | 0.991 ± 0.033 |
| CTATGTGTGG | 0.976 ± 0.021 |
| TACATATTCG | 0.989 ± 0.041 |
| ACGAAGAGTT | 1.05 ± 0.019 |
| TAAAAACTGG | 0.975 ± 0.045 |
| ACTTTATTCT | 1.04 ± 0.02 |
| GATAGGGATG | 1.001 ± 0.0062 |
| TATTTATCTG | 1.02 ± 0.019 |
| ATAAGTGCGA | 0.9826 ± 0.002 |
| TGGACAGGGT | 0.999 ± 0.017 |
| TGGCCCTTTT | 1.07 ± 0.13 |
| TCCTGAGTTT | 0.991 ± 0.047 |
| TAGTTGTTCC | 1.07 ± 0.07 |
| GCACGTGCGT | 1.02 ± 0.035 |
| TGCTTTTCCG | 1.1 ± 0.07 |
| GAGTCTGGT | 0.981 ± 0.036 |
| TGATGAGCTC | 0.983 ± 0.02 |
| AGGGTGGGG | 0.928 ± 0.076 |
| CCAGCTGGAT | 1.015 ± 0.0088 |

| Sequence | switch fluorescence ratio |
| --- | --- |
| TCCAGGGGAA | 1.03 ± 0.014 |
| AAAGGAATTT | 1.12 ± 0.19 |
| TCTTTTATTT | 0.998 ± 0.043 |
| TGGGGTTTGG | 0.984 ± 0.036 |
| TGGGGTGGTT | 1.03 ± 0.015 |
| GAAGCGTGTC | 1.02 ± 0.017 |
| GTCACTAAAG | 1.02 ± 0.043 |
| TGAGTCAGTG | 1.0116 ± 0.00046 |
| TGGGATACAG | 0.982 ± 0.026 |
| AGATCAGGAT | 1.02 ± 0.012 |
| TTTCAGTGTT | 1.05 ± 0.099 |
| TTTGAAGAAA | 1.06 ± 0.033 |
| GTGCCTTTGC | 1.11 ± 0.067 |
| TGTTTATTGG | 1.01 ± 0.065 |
| TGGATATGGG | 1.01 ± 0.028 |
| TAAGGGATAG | 0.985 ± 0.043 |
| TTAAGCTTTT | 0.989 ± 0.012 |
| GGTGGGGAGT | 1.01 ± 0.021 |
| ATCGGGGTAA | 1.04 ± 0.068 |
| GAGTCCCTGA | 0.993 ± 0.032 |
| AAGTAGGAGT | 0.994 ± 0.034 |
| GTAGGGCGCG | 1.021 ± 0.0035 |
| CGAGATTTGT | 1.011 ± 0.0097 |
| GATGTAACAC | 1.07 ± 0.013 |
| GAAGGGGTAC | 1.16 ± 0.15 |
| CTGGGTATTG | 0.971 ± 0.012 |

| Sequence | switch fluorescence ratio |
| --- | --- |
| ATTTGGGGAT | 1.02 ± 0.03 |
| TATAGGAGGG | 0.991 ± 0.039 |
| ATCCAGACGG | 1.04 ± 0.026 |
| TCCTTGATAT | 0.995 ± 0.04 |
| TATTTTGAAC | 1.0289 ± 4.6e-05 |
| CATAGATGGG | 1.01 ± 0.015 |
| TGGCGGCTTT | 1.01 ± 0.041 |
| ATGTTATAGA | 0.986 ± 0.034 |
| TCGTCTCTTT | 0.986 ± 0.018 |
| ACTTAAGTTT | 1.01 ± 0.07 |
| CAGTGGGGAC | 1.03 ± 0.055 |
| TTTTAGTTAC | 1.073 ± 0.0044 |
| TGGGGAGAAG | 0.994 ± 0.013 |
| TGGGGGTCGT | 1.02 ± 0.024 |
| TGGTTGAACG | 0.996 ± 0.019 |
| AAGGGTTGTC | 0.999 ± 0.088 |
| GGAGCATGAG | 2.47 ± 0.14 |
| AGCGCAGTTT | 0.999 ± 0.021 |
| ACAGGGAGGG | 1.02 ± 0.015 |
| CGATGTCGAA | 1.01 ± 0.011 |
| TCGGCGTCTT | 0.977 ± 0.04 |
| GATTTTTTGT | 0.99 ± 0.028 |
| ATGGGAACGG | 0.994 ± 0.017 |
| GTTGGTATTC | 0.9965 ± 0.0086 |
| GAGGGCCTCA | 1 ± 0.033 |
